Data reported in paper PMC2719692.

Biological target: T1, eEF1α (GST fusion) (rat) (UniProt P62630)
T1 sequence: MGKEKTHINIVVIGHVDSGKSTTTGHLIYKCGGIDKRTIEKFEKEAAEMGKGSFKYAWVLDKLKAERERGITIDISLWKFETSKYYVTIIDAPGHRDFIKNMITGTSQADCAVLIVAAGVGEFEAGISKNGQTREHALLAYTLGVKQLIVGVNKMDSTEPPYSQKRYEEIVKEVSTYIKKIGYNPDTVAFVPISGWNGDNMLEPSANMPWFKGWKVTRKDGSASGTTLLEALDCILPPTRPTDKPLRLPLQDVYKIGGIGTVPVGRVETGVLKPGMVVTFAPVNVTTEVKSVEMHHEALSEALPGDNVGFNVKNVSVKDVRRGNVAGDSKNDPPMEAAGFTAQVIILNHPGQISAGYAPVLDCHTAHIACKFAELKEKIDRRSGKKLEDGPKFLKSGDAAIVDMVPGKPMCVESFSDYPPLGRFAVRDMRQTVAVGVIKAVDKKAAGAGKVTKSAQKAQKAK
Assay: EMSA
Details: EMSA: 40 mM NaCl, 5 mM MgCl2, 30 mM Tris-HCl pH 7.6, 2 mM DTT, protease inhibitors, 22 °C 15 min, then RNase T1 (described for CHO extract); 12 fmol RNA in …

For “GGAGUGACGAACAGUGCUGCUGCCCUCAGGUGUAAAUAAUUUCCGGACCAACUCAGAGUCUUGCCGUACACCUCCACCCAGUUUACUAAACCCCGUUUUCUACCGAGCAUGUG [MT-111 (MT-1 3′UTR nt 1-111)]”, the binding was “binds”.
